Experimental data from patent US12173061B2, “Compositions and methods for treatment of chronic lung diseases” (Board of Regents, The University of Texas System, priority 2021, dated 2024).
Entries after “also recorded” stand apart in the source; their conditions may differ.

B1: M9 protein: recombinant full length human MEGF9 protein (SEQ ID NO: 1) (protein, listed as Homo sapiens)
chain: MNGGAERAMRSLPSLGGLALLCCAAAAAAAAVASAASAGNVTGGGGAAGQVDASPGPGLRGEPSHPFPRATAPTAQAPRTGPPRATVHRPLAATSPAQSPETTPLWATAGPSSTTFQAPLGPSPTTPPAAERTSTTSQAPTRPAPTTLSTTTGPAPTTPVATTVPAPTTPRTPTPDLPSSSNSSVLPTPPATEAPSSPPPEYVCNCSVVGSLNVNRCNQTTGQCECRPGYQGLHCETCKEGFYLNYTSGLCQPCDCSPHGALSIPCNSSGKCQCKVGVIGSICDRCQDGYYGFSKNGCLPCQCNNRSASCDALTGACLNCQENSKGNHCEECKEGFYQSPDATKECLRCPCSAVTSTGSCSIKSSELEPECDQCKDGYIGPNCNKCENGYYNFDSICRKCQCHGHVDPVKTPKICKPESGECINCLHNTTGFWCENCLEGYVHDLEGNCIKKEVILPTPEGSTILVSNASLTTSVPTPVINSTFTPTTLQTIFSVSTSENSTSALADVSWTQFNIIILTVIIIVVVLLMGFVGAVYMYREYQNRKLNAPFWTIELKEDNISFSSYHDSIPNADVSGLLEDDGNEVAPNGQLTLTTPIHNYKA
B2: rM9^ECD: recombinant extracellular domain of human MEGF9 (SEQ ID NO: 102) (protein, listed as Homo sapiens)
chain: MGWSCIILFLVATATGVHSAAVASAASAGNVTGGGGAAGQVDASPGPGLRGEPSHPFPRATAPTAQAPRTGPPRATVHRPLAATSPAQSPETTPLWATAGPSSTTFQAPLGPSPTTPPAAERTSTTSQAPTRPAPTTLSTTTGPAPTTPVATTVPAPTTPRTPTPDLPSSSNSSVLPTPPATEAPSSPPPGHQWPVAKMPQKYLGKYACESNLKSKYLPLTQPVMNLRVSEAVKTEYVCNCSVVGSLNVNRCNQTTGQCECRPGYQGLHCETCKEGFYLNYTSGLCQPCDCSPHGALSIPCNSSGKCQCKVGVIGSICDRCQDGYYGFSKNGCLPCQCNNRSASCDALTGACLNCQENSKGNHCEECKEGFYQSPDATKECLRCPCSAVTSTGSCSIKSSELEPECDQCKDGYIGPNCNKCENGYYNFDSICRKCQCHGHVDPVKTPKICKPESGECINCLHNTTGFWCENCLEGYVHDLEGNCIKKEVILPTPEGSTILVSNASLTTSVPTPVINSTFTPTTLQTIFSVSTSENSTSALADVSWTQFN

How the values were obtained:
[1] = test system: fLfs isolated from IPF lungs (hfLfs); assay: Pro-fibrogenic marker expression in fLfs in vitro (immunoblot and mRNA); assay type: cell-based, human; details: 2 μg/ml, 48 h, immunoblot
Procedure: FIGS. 3A-3B. Antibodies specific for M9 inhibited pro-fibrogenic markers expression in fLfs in vitro. hfLfs were serum starved and treated with PBS or 2 μg/ml M9 antibody (M9Ab), or 2 μg/ml M9Ab plus 20 μM CSP7 for 48 hours (FIG. 3A). After treatment, cells were harvested and cell lysates were immunoblotted for pro-fibrogenic markers and M9, and 3-actin was used as loading control.
FIG. 4. […]
FIGS. 7A-7M. […] Lung volumes (FIG. 7B) were measured by quantitative-CT renditions, and lung compliance (FIG. 7C) and elastance (FIG. 7D) were measured using a flexiVent system. […] Statistical significance (*P<0.05, **P<0.01, ***P<0.001 and ****P<0.0001) was assessed by one-way ANOVA with Turkey's multiple comparison.
FIGS. 9A-9O. […] FIG. 9B: Lung volumes were measured by quantitative-CT renditions. Lung compliance (FIG. 9C) and elastance (FIG. 9D) were measured using a flexiVent system. […] Statistical significance (*P<0.05, **P<0.01, ***P<0.001 and ****P<0.0001) was assessed by one-way ANOVA with Turkey's multiple comparison. fLfs isolated from IPF lungs treated with PBS or recombinant full length M9 (rM9^FL) protein (2 μg/ml) for 48 h in vitro were tested for pro-fibrogenic proteins (FIG. 9L). fLfs (from IPF lungs) treated with PBS or extracellular domain of rM9^FL protein (rM9^ECD) as in FIG. 9L were tested for pro-fibrogenic proteins (FIG. 9N). […]

[2] = test system: BLM-induced pulmonary fibrosis; assay: BLM-induced established pulmonary fibrosis in mice, treatment d14-d21; assay type: in vivo
Procedure: FIGS. 9A-9O. M9 peptide and protein mitigated BLM-induced pulmonary fibrosis. Mice exposed to saline or 1.0 U/kg BLM by intratracheal instillation were treated with or without M9 peptide HGHVDPVKTPKI (SEQ ID NO: 4) (10 mg/kg/d) and M9 protein (SEQ ID NO: 1) 7.5 mg/kg/d) via IP injection daily for 7 days starting d14 after BLM injury. FIG. 9A: Representative micro-CT images at d21 after BLM exposure. FIG. 9B: Lung volumes were measured by quantitative-CT renditions. Lung compliance (FIG. 9C) and elastance (FIG. 9D) were measured using a flexiVent system. Lung weights (FIG. 9E) and body weights (FIG. 9F) are presented as bar graphs. Lung homogenates were tested for hydroxyproline (FIG. 9G), soluble collagen (FIG. 9H), pro-fibrogenic marker proteins (FIG. 9I) and mRNAs (FIG. 9J). Bars indicate mean±SD. Statistical significance (*P<0.05, **P<0.01, ***P<0.001 and ****P<0.0001) was assessed by one-way ANOVA with Turkey's multiple comparison. fLfs isolated from IPF lungs treated with PBS or recombinant full length M9 (rM9^FL) protein (2 μg/ml) for 48 h in vitro were tested for pro-fibrogenic proteins (FIG. 9L). fLfs (from IPF lungs) treated with PBS or extracellular domain of rM9^FL protein (rM9^ECD) as in FIG. 9L were tested for pro-fibrogenic proteins (FIG. 9N). The survival the mice treated with rM9^FL is shown FIG. 9M.
FIGS. 10A-10K. UNC5A (“U5”) peptide/protein mitigated BLM-induced pulmonary fibrosis. Mice exposed to saline or 1.0 U/kg BLM by intratracheal instillation were treated with or without U5 peptide (50 residues, SEQ ID NO: 7) (10 mg/kg/d) and full length U5 protein (SEQ ID NO: 5) (7.5 mg/kg/d) via IP injection daily for 7 days starting d14 after BLM injury. FIG. 10A: Representative micro-CT images at d21 after BLM exposure. FIG. 10B: Lung volumes were measured by quantitative-CT renditions. Lung compliance (FIG. 10C) and elastance (FIG. 10D) were measured using a flexiVent system. Lung weights (FIG. 10E) and body weights (FIG. 10F) are presented as bar graphs. Lung homogenates were tested for hydroxyproline (FIG. 10G), soluble collagen (FIG. 10H), pro-fibrogenic marker proteins (FIG. 10I) and mRNAs (FIG. 10J). Bars indicate mean±SD. Statistical significance (*P<0.05, **P<0.01, ***P<0.001 and ****P<0.0001) was assessed by one-way ANOVA with Turkey's multiple comparison.
FIGS. 11A-11K. ALG5 (“A5”) protein mitigated BLM-induced pulmonary fibrosis. Mice exposed to saline or 1.0 U/kg BLM by intratracheal instillation were treated with or without A5 protein (SEQ ID NO: 9) (7.5 mg/kg/d) via IP injection daily for 7 days starting d14 after BLM injury. FIG. 11A: Representative micro-CT images at d21 after BLM exposure. FIG. 11B: Lung volumes were measured by quantitative-CT renditions. Lung compliance (FIG. 11C) and elastance (FIG. 11D) were measured using a flexiVent system. Lung weights (FIG. 11E) and body weights (FIG. 11F) are presented as bar graphs. Lung homogenates were tested for hydroxyproline (FIG. 11G), soluble collagen (FIG. 11H), pro-fibrogenic marker proteins (FIG. 11I) and mRNAs (FIG. 11J). Bars indicate mean±SD. *P<0.05, **P<0.01, ***P<0.001 and ****P<0.0001 were obtained by one-way ANOVA with Turkey's multiple comparison.
FIGS. 12A-12E. WT mice with BLM-PF were treated with or without rM9^ECD (1.5 mg/kg) via intratracheal (IT) instillation daily for 7 d starting d 14 after BLM. Survival (FIG. 12A), body weights (FIG. 12B), lung volumes (FIG. 12C) and lung weights (FIG. 12D) were measured on d 21 post-BLM. Lung homogenates were tested for soluble collagen (FIG. 12E).
FIGS. 13A-13B. FIG. 13A: fLfs (IPF) treated with PBS or M9^mAb (2 μg/ml) or control IgG, tested for pro-fibrogenic proteins (i) and mRNAs (ii). FIG. 13B: WT mice with BLM-PF were left untreated, or intraperitoneal (IP) injected with control IgG or M9^mAb (2.5 mg/kg) daily for 7 d starting 14 d after IT BLM. Body weights (i) and total lung hydroxyproline (ii), and soluble collagen (iii) were measured. […]

[3] = protein 7.5 mg/kg/d IP, 7 days starting d14 after BLM
[4] = protein 7.5 mg/kg/d IP, 7 days starting d14 after BLM, flexiVent, d21

Row | Molecule | pro-fibrogenic marker proteins (Col1, FN, TN-C and α-SMA) in fLfs [1] | survival rate ([2]; mice with BLM-induced existing PF, full length protein 7.5 mg/kg/d IP) | BLM-induced pulmonary fibrosis (overall) ([2]; mice, 1.0 U/kg BLM IT, protein 7.5 mg/kg/d IP daily for 7 days starting d14, d21) | BLM-induced fibrogenic marker proteins (Col1, FN, TN-C, α-SMA) in whole lung homogenates [2, 3] | body weight [2, 3] | collagen and other extracellular matrix deposits (Trichrome staining of lung sections) [2, 3] | fibrogenic marker transcripts in whole lung homogenates [2, 3] | lung weight [2, 3] | lung compliance [2, 4] | lung elastance [2, 4] | whole lung total hydroxyproline ([2]; protein 7.5 mg/kg/d IP, 7 days starting d14 after BLM, lung homogenates) | lung volume ([2]; protein 7.5 mg/kg/d IP, 7 days starting d14 after BLM, quantitative CT, d21) | lung function ([2]; 1.5 mg/kg intratracheal (IT) instillation daily for 7 d starting d 14 after BLM) | existing BLM-induced PF (overall) ([2]; WT mice with BLM-PF, 1.5 mg/kg intratracheal (IT) instillation daily for 7 d starting d 14, d 21, 1.5 mg/kg) | survival rate ([2]; mice with BLM-induced existing PF treated with extracellular domain protein, dose not printed (FIG. 9))
1 | B1 | reduced | significantly increased | resolved; also recorded: mitigated | marked inhibition | improvement | remarkable reduction | marked inhibition | reduction | improved | improved | significant inhibition | improved |  |  | 
2 | B2 | reduced |  |  |  |  |  |  |  |  |  |  |  | improved | resolved; also recorded: resolution | significantly increased
